According to publication PMC4002761:

Target: Taxol-stabilized Cy5-microtubules
Experiment: single-molecule TIRF microscopy

Row | Substance | fold increase in the frequency of active landing events against FL WT Kif21a [fold]
1 | mouse GFP-fused FL MT3 (R943W) Kif21a (natural protein) | 10
2 | mouse GFP-fused FL MT1 (M356T) Kif21a (natural protein) | 10
